# Measurements from IntAct's records for PubMed 31515488.
# B1: Protein LDOC1 (Homo sapiens), O95751 (parent)
# chain: MVDELVLLLHALLMRHRALSIENSQLMEQLRLLVCERASLLRQVRPPSCPVPFPETFNGESSRLPEFIVQTASYMLVNENRFCNDAMKVAFLISLLTGEAEEWVVPYIEMDSPILGDYRAFLDEMKQCFGWDDDEDDDDEEEEDDY
# partner: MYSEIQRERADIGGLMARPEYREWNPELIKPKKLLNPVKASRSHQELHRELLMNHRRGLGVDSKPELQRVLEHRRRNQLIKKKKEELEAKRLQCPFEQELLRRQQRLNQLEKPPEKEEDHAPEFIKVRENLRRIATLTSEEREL
# B2: Tripartite motif-containing protein 59 (Homo sapiens), Q8IWR1 (parent)
# chain: MHNFEEELTCPICYSIFEDPRVLPCSHTFCRNCLENILQASGNFYIWRPLRIPLKCPNCRSITEIAPTGIESLPVNFALRAIIEKYQQEDHPDIVTCPEHYRQPLNVYCLLDKKLVCGHCLTIGQHHGHPIDDLQSAYLKEKDTPQKLLEQLTDTHWTDLTHLIEKLKEQKSHSEKMIQGDKEAVLQYFKELNDTLEQKKKSFLTALCDVGNLINQEYTPQIERMKEIREQQLELMALTISLQEESPLKFLEKVDDVRQHVQILKQRPLPEVQPVEIYPRVSKILKEEWSRTEIGQIKNVLIPKMKISPKRMSCSWPGKDEKEVEFLKILNIVVVTLISVILMSILFFNQHIITFLSEITLIWFSEASLSVYQSLSNSLHKVKNILCHIFYLLKEFVWKIVSH
# partner: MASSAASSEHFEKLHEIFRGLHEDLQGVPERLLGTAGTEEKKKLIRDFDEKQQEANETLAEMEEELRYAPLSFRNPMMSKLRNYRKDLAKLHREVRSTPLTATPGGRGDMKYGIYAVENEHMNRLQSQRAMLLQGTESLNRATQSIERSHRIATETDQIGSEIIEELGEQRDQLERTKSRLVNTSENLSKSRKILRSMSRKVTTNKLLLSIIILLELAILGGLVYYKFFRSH
# B3: Zinc finger CCHC domain-containing protein 10 (Homo sapiens), Q8TBK6 (parent)
# chain: MATPMHRLIARRQAFDTELQPVKTFWILIQPSIVISEANKQHVRCQKCLEFGHWTYECTGKRKYLHRPSRTAELKKALKEKENRLLLQQSIGETNVERKAKKKRSKSVTSSSSSSSDSSASDSSSESEETSTSSSSEDSDTDESSSSSSSSASSTTSSSSSDSDSDSSSSSSSSTSTDSSSDDEPPKKKKKK
# partner: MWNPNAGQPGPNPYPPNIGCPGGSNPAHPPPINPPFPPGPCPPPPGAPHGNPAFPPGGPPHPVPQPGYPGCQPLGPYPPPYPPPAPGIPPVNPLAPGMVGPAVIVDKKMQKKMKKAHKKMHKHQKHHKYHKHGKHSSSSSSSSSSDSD
# B4: Rho guanine nucleotide exchange factor 3 (Homo sapiens), Q9NR81 (parent)
# chain: MVAKDYPFYLTVKRANCSLELPPASGPAKDAEEPSNKRVKPLSRVTSLANLIPPVKATPLKRFSQTLQRSISFRSESRPDILAPRPWSRNAAPSSTKRRDSKLWSETFDVCVNQMLTSKEIKRQEAIFELSQGEEDLIEDLKLAKKAYHDPMLKLSIMTEQELNQIFGTLDSLIPLHEELLSQLRDVRKPDGSTEHVGPILVGWLPCLSSYDSYCSNQVAAKALLDHKKQDHRVQDFLQRCLESPFSRKLDLWNFLDIPRSRLVKYPLLLREILRHTPNDNPDQQHLEEAINIIQGIVAEINTKTGESECRYYKERLLYLEEGQKDSLIDSSRVLCCHGELKNNRGVKLHVFLFQEVLVITRAVTHNEQLCYQLYRQPIPVKDLLLEDLQDGEVRLGGSLRGAFSNNERIKNFFRVSFKNGSQSQTHSLQANDTFNKQQWLNCIRQAKETVLCAAGQAGVLDSEGSFLNPTTGSRELQGETKLEQMDQSDSESDCSMDTSEVSLDCERMEQTDSSCGNSRHGESNV
# partner: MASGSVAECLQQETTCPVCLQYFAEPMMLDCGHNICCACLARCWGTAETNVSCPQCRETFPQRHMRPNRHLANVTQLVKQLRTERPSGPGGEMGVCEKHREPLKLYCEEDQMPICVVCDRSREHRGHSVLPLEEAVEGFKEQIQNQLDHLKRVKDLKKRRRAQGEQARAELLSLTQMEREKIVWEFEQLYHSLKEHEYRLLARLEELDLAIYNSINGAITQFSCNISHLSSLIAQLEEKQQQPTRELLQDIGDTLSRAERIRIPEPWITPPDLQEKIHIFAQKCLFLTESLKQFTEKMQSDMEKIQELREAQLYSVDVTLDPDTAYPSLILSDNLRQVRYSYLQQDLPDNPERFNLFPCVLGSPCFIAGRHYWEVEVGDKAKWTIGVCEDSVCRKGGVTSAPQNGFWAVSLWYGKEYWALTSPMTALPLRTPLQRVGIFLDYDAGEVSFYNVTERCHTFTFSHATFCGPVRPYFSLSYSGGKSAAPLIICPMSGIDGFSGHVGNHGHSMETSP
# B5: Elongin-A2 (Homo sapiens), Q8IYF1 (parent)
# chain: MAAGSTTLHAVEKLQVRLATKTEPKKLEKYLQKLSALPMTADILAETGIRKTVKRLRKHQHVGDFARDLAARWKKLVLVDRNTRPGPQDPEESASRQRFGEALQDQEKAWGFPENATAPRSPSHSPEHRRTARRTPPGQQRPHPRSHSREPRAERKCPRIAPADSGRYRASPTRTAPLRMPEGPEPAAPGKQPGRGHTHAAQGGPLLCPGCQGQPQGKAVVSHSKGHKSSRQEKRPLCAQGDWHSPTLIREKSCGACLREETPRMPSWASARDRQPSDFKTDKEGGQAGSGQRVPALEEAPDSHQKRPQHSHSNKKRPSLDGRDPGNGTHGLSPEEKEQLSNDRETQEGKPPTAHLDRTSVSSLSEVEEVDMAEEFEQPTLSCEKYLTYDQLRKQKKKTGKSATTALGDKQRKANESKGTRESWDSAKKLPPVQESQSERLQAAGADSAGPKTVPSHVFSELWDLSEAWMQANYDPLSDSDSMTSQAKPEALSSPKFREEAAFPGRRVNAKMPVYSGSRPACQLQVPTLRQQCAQVLRNNPDALSDVGEVPYWVLEPVLEGWRPDQLYRRKKDNHALVRETDELRRNHCFQDFKEEKPQENKTWREQYLRLPDAPEQRLRVMTTNIRSARGNNPNGREAKMICFKSVAKTPYDTSRRQEKSAGDADPENGEIKPASKPAGSSHTPSSQSSSGGGRDSSSSILRWLPEKRANPCLSSSNEHAAPAAKTRKQAAKKVAPLMAKAIRDYKRRFSRR
# partner: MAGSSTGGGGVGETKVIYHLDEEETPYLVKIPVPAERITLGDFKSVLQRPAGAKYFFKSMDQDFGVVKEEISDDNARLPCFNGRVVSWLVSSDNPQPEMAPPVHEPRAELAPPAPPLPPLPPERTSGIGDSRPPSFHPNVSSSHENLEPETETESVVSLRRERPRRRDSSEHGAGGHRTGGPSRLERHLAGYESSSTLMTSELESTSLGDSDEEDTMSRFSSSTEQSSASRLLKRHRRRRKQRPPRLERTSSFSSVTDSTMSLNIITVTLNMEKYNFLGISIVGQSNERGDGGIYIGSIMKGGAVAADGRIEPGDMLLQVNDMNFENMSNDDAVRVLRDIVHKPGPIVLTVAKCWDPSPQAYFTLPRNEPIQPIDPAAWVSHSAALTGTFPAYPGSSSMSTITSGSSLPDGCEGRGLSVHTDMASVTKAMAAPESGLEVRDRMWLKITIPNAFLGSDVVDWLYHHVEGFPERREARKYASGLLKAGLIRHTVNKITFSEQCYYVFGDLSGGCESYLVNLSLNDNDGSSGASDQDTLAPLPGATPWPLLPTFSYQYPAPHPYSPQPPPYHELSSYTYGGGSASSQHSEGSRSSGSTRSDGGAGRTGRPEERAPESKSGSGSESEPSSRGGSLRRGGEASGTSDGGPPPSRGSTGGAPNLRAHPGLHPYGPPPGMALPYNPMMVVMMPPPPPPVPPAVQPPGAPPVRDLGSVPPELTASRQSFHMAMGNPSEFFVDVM
# Variants of: B1
# Conditions: with FAM107A
row,Variant,effect of a mutation on the interaction
1,L12H,disrupting interaction strength

# Variants of: B2
# Conditions: with vti1b_human VTI1B
row,Variant,effect of a mutation on the interaction
1,I277V,with no effect

# Variants of: B3
# Conditions: with prr13_human PRR13, Q9NZ81
row,Variant,effect of a mutation on the interaction
1,S153P,with no effect

# Variants of: B4
# Conditions: with tri27_human TRIM27, P14373
row,Variant,effect of a mutation on the interaction
1,N432S,with no effect

# Variants of: B5
# Conditions: with dvl2_human DVL2, O14641
row,Variant,effect of a mutation on the interaction
1,R498Q,with no effect
2,D302H,with no effect
